Experimental data from patent US20220056111A1 (YUROGEN BIOSYSTEMS, published 2022).

Columns and labels:
Test in all cases: direct ELISA, OD450
SARS S1 and S2 protein = target: T1, SARS S1 and S2 protein (SARS, UniProt P59594 14-1195)
T1 construct: domain: S1 and S2

MERS-CoV Spike protein = MERS-CoV Spike protein (MERS-CoV, UniProt K9N5Q8 18-1296)
HKU1 S1 and S2 protein = target: T2, HKU1 S1 and S2 protein (HKU1, UniProt Q5MQD0 13-1300)
T2 construct: domain: S1 and S2
T2 sequence: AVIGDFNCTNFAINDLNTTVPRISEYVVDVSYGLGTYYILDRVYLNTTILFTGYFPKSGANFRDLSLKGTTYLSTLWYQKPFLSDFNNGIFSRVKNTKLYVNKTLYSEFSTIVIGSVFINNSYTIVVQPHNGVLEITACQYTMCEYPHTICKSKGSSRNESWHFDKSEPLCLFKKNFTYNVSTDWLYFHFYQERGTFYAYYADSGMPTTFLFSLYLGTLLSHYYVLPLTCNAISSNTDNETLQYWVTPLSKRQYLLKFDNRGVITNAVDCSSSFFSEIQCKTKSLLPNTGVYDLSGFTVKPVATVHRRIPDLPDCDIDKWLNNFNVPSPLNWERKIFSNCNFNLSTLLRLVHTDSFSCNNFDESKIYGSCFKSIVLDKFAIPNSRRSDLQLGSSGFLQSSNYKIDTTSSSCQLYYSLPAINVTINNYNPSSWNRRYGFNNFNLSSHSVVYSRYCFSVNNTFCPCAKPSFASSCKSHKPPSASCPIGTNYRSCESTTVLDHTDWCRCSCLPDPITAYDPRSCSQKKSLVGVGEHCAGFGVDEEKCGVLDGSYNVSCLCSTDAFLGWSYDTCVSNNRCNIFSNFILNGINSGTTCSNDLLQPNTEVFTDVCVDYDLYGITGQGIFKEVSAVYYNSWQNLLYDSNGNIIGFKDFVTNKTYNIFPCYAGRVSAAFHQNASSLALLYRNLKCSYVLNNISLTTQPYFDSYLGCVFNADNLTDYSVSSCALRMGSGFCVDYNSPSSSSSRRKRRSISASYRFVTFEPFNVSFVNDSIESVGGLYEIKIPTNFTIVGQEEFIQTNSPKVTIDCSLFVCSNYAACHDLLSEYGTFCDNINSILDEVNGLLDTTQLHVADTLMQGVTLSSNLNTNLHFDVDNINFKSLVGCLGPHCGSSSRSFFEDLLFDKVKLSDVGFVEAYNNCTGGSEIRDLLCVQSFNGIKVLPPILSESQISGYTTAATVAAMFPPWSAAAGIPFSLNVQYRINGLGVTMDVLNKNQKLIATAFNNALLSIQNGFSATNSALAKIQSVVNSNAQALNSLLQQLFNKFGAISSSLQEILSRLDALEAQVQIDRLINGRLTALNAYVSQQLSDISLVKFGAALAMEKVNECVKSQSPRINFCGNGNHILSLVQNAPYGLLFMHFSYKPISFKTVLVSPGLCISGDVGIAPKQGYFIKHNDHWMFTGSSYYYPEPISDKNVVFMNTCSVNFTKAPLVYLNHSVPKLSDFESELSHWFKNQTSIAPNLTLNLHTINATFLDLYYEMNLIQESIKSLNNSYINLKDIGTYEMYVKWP

HcoV-NL63 S protein = target: T3, HcoV-NL63 S protein (HcoV-NL63, UniProt Q6Q1S2 19-1296)
T3 construct: also called hCov-NL63 S1
T3 sequence: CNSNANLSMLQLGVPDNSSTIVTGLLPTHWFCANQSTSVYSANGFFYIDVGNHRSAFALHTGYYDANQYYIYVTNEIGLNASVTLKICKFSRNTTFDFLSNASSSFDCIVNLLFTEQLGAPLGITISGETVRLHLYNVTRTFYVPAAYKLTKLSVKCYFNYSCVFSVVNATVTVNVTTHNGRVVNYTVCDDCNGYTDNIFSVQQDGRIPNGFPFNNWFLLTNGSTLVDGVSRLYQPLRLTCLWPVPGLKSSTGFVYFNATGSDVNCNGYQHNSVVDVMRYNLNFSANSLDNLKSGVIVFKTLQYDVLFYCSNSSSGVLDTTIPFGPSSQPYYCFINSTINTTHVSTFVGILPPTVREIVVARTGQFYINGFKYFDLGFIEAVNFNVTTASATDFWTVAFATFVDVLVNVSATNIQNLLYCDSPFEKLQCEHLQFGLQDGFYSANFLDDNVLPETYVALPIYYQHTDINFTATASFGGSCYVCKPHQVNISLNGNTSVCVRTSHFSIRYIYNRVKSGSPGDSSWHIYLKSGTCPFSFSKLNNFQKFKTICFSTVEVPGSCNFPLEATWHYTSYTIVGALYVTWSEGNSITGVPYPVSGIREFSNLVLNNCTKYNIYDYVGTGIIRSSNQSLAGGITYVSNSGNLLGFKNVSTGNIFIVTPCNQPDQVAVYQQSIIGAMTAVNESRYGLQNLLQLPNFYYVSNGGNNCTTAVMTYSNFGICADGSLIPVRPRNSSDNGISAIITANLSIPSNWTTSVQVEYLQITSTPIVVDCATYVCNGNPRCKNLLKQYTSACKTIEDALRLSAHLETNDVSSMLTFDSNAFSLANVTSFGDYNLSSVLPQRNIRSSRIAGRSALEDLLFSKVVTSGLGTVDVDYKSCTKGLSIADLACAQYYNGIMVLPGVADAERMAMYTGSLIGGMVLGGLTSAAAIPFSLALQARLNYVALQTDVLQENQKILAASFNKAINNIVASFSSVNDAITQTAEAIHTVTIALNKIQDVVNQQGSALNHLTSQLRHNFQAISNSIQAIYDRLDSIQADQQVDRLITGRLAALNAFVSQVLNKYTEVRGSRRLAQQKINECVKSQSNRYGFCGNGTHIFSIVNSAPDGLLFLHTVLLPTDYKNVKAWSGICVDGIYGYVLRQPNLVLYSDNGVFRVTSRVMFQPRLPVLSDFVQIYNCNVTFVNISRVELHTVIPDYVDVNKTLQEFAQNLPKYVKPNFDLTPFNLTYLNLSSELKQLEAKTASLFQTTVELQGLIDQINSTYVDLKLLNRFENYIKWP

Measured: binding result

B1: rabbit monoclonal antibody 1H1 against the SARS-CoV-2 S1 (antibody, V domains shown)
VH: QSLEESGGDLVKPGASLTLTCTASGFSFSSGYDMCWVRQAPGKGLEWIACIGTGSSGNIYYASWAKGRFTISKTSSTTVTLQMTSLTAADTATYFCARDDADYAGPDYFNLWGPGTLVTVSS
VL: DIVMTQTPASVSEPVGGTVTIKCQASESISNWLAWYQQKPGQPPKLLIYAAFTLASGVPSRFKGSGSGTQFTLTINGVECADAATYYCQQTYSSRDVDNVFGGGTEVVVKG
no binding: SARS S1 and S2 protein | MERS-CoV Spike protein | HKU1 S1 and S2 protein | HcoV-NL63 S protein

B2: rabbit monoclonal antibody 1A3 against the SARS-CoV-2 S1 (antibody, V domains shown)
VH: QSLEESGGRLVTPGTPLTLTCTVSGFSFSSYHMGWVRQAPGEGLEWIGTLIGIAGNTYYASWAKGRFSISKTSTTVDLKMTSPTTEDTATYWCARIVTATFEFWGPGTLVTVSS
VL: AQVLTQTPSPVSAAVGGTVTISCQASQSVNMNLLSWFQQKPGQPPKLLIYQASNLASGVSARFKGSGSGTQFTLTINEIQCDDAATYYCQGDMGGWMFPFGGGTEVVVTG
no binding: SARS S1 and S2 protein | MERS-CoV Spike protein | HKU1 S1 and S2 protein | HcoV-NL63 S protein

B3: rabbit monoclonal antibody 1D2 against the SARS-CoV-2 S1 (antibody, V domains shown)
VH: QSVEESGGRLVTPGTSLTLTCTVSGIDIETYWMSWVRQAPGKGLEWIAIITSHDHSGYANWAEGRFTISKTSTTVTLTITDLQPSDTGTYFCAKDVGHSTYDLWGPGTLVTVSS
VL: AAVLTQTPSPVSAAVGGTVTISCQSSESVLSNNRLSWYQQKPGQPPKLLIYAASTLASGVPSRFKGRGSGTQFTLTISDVQCDDAAMYVCAGAFSGSSDTRAFGGGTEVVVKG
no binding: HcoV-NL63 S protein

B4: rabbit monoclonal antibody 7G5 against the SARS-CoV-2 S1 (antibody, V domains shown)
VH: QEQLEESGGDLVKPGASLTLTCTASGFSFSSAYYMCWVRQAPGKGLEWIACIGVDSGGNSYYASWAKGRFTISTTSSTTVTLQMTSLTAADKATYFCTRSFSLWGPGTLVTISS
VL: RKWLTQTASSVSAAVGGTVTISCQASQSVYNNDNLAWFQQRPGQPPKLLIYLASNLASGVPPRFSGSGSGTQFTLTISDVQCDDAATYYCLGGYDCSNADCHAFGGGTEVVVKG
no binding: SARS S1 and S2 protein | MERS-CoV Spike protein | HKU1 S1 and S2 protein | HcoV-NL63 S protein

B5: rabbit monoclonal antibody 9A5 against the SARS-CoV-2 S1 (antibody, V domains shown)
VH: QSVEESGGRLVTPGTPLTLTCTVSGFSLSAYQMIWVRQTPGKGLEYIGIMHTGTSAYYANWAKGRFTISKTSSTTVDLKMTSPTTEDTATYFCGRNLNEGFTGAYPFNLWGPGTLVAVSS
VL: DVVMTQTPASVEAAVGGTVTIKCQASQSIGSNLAWYQKKPGQPPKLLIYQASNLASGVPSRFKGSGSGTQFTLTISDLECADAATYYCQMNYYISSSYTYTFGGGTEVVVKG
no binding: SARS S1 and S2 protein | MERS-CoV Spike protein | HKU1 S1 and S2 protein | HcoV-NL63 S protein
